Tests used:
[1] = tested on: HeLa Kyoto; assay: solubility change mitosis vs G1/S (difference of NP-40 vs SDS log2 ratios) (log2 ratio difference); higher = more soluble in mitosis
[2] = tested on: HeLa Kyoto; assay: melting temperature (median over replicates), in situ; higher = more thermally stable
[3] = tested on: HeLa Kyoto; assay: thermal stability score vs G1/S (z-score of summed log2 fold changes over temperatures); higher = more thermally stable than in G1/S
[4] = tested on: HeLa Kyoto; assay: solubility in G1/S (NP-40 vs SDS abundance) (log2 ratio); higher = more soluble; conditions: cell cycle stage: G1/S
[5] = cell cycle stage: early G1 (4.5 h after nocodazole release)
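For melting temperature (median over replicates), in situ in this document: HeLa Kyoto cells synchronized by double thymidine or nocodazole block, proteins quantified by TMT10plex mass spectrometry, three independent biological replicates.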
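For solubility change mitosis vs G1/S (difference of NP-40 vs SDS log2 ratios) in this document: synchronized HeLa Kyoto cells (double thymidine block for G1/S, nocodazole release for mitosis), protein amounts in NP-40 versus SDS lysates quantified by mass spectrometry, three biological replicates.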
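For solubility in G1/S (NP-40 vs SDS abundance) in this document: HeLa Kyoto cells arrested at G1/S by double thymidine block, proteins quantified by TMT10plex mass spectrometry in mild NP-40 versus SDS extracts, three biological replicates.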
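For thermal stability score vs G1/S (z-score of summed log2 fold changes over temperatures) in this document: synchronized HeLa Kyoto cells, proteins quantified by TMT10plex mass spectrometry, three biological replicates, mitosis taken 0.5 h after nocodazole release, G1/S directly after double thymidine block.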

For “MAAAGAAATHLEVARGKRAALFFAAVAIVLGLPLWWKTTETYRASLPYSQISGLNALQLRLMVPVTVVFTRESVPLDDQEKLPFTVVHEREIPLKYKMKIKCRFQKAYRRALDHEEEALSSGSVQEAEAMLDEPQEQAEGSLTVYVISEHSSLLPQDMMSYIGPKRTAVVRGIMHREAFNIIGRRIVQVAQAMSLTEDVLAAALADHLPEDKWSAEKRRPLKSSLGYEITFSLLNPDPKSHDVYWDIEGAVRRYVQPFLNALGAAGNFSVDSQILYYAMLGVNPRFDSASSSYYLDMHSLPHVINPVESRLGSSAASLYPVLNFLLYVPELAHSPLYIQDKDGAPVATNAFHSPRWGGIMVYNVDSKTYNASVLPVRVEVDMVRVMEVFLAQLRLLFGIAQPQLPPKCLLSGPTSEGLMTWELDRLLWARSVENLATATTTLTSLAQLLGKISNIVIKDDVASEVYKAVAAVQKSAEELASGHLASAFVASQEAVTSSELAFFDPSLLHLLYFPDDQKFAIYIPLFLPMAVPILLSLVKIFLETRKSWRKPEKTD [PIGS]”, the “solubility change mitosis (log2)” value [1] was -0.13, the melting temperature ([2]; cell cycle stage: G1/S) was 52.6 °C and the melting temperature ([2]; cell cycle stage: mitosis) was 53.1 °C. The thermal stability score [3, 5] was 2.4, the thermal stability score ([3]; cell cycle stage: mitosis) was 4.4 and the “solubility in G1/S (log2)” value [4] was 0.0826.

“MAGIAAKLAKDREAAEGLGSHDRAIKYLNQDYEALRNECLEAGTLFQDPSFPAIPSALGFKELGPYSSKTRGIEWKRPTEICADPQFIIGGATRTDICQGALGDCWLLAAIASLTLNEEILARVVPLNQSFQENYAGIFHFQFWQYGEWVEVVVDDRLPTKDGELLFVHSAEGSEFWSALLEKAYAKINGCYEALSGGATTEGFEDFTGGIAEWYELKKPPPNLFKIIQKALQKGSLLGCSIDITSAADSEAITFQKLVKGHAYSVTGAEEVESNGSLQKLIRIRNPWGEVEWTGRWNDNCPSWNTIDPEERERLTRRHEDGEFWMSFSDFLRHYSRLEICNLTPDTLTSDTYKKWKLTKMDGNWRRGSTAGGCRNYPNTFWMNPQYLIKLEEEDEDEEDGESGCTFLVGLIQKHRRRQRKMGEDMHTIGFGIYEVPEELSGQTNIHLSKNFFLTNRARERSDTFINLREVLNRFKLPPGEYILVPSTFEPNKDGDFCIRVFSEKKADYQAVDDEIEANLEEFDISEDDIDDGFRRLFAQLAGEDAEISAFELQTILRRVLAKRQDIKSDGFSIETCKIMVDMLDSDGSGKLGLKEFYILWTKIQKYQKIYREIDVDRSGTMNSYEMRKALEEAGFKMPCQLHQVIVARFADDQLIIDFDNFVRCLVRLETLFKIFKQLDPENTGTIELDLISWLCFSVL [CAPN2]” was tested, and the “solubility change mitosis (log2)” value [1] was -0.183, the melting temperature ([2]; cell cycle stage: G1/S) was 55.4 °C and the melting temperature ([2]; cell cycle stage: mitosis) was 54.9 °C. For the same sequence, the thermal stability score [3, 5] was -0.784, the thermal stability score ([3]; cell cycle stage: mitosis) was -1.57 and the “solubility in G1/S (log2)” value [4] was -0.0212.

With “MAGASVKVAVRVRPFNARETSQDAKCVVSMQGNTTSIINPKQSKDAPKSFTFDYSYWSHTSTEDPQFASQQQVYRDIGEEMLLHAFEGYNVCIFAYGQTGAGKSYTMMGRQEPGQQGIVPQLCEDLFSRVSENQSAQLSYSVEVSYMEIYCERVRDLLNPKSRGSLRVREHPILGPYVQDLSKLAVTSYADIADLMDCGNKARTVAATNMNETSSRSHAVFTIVFTQRCHDQLTGLDSEKVSKISLVDLAGSERADSSGARGMRLKEGANINKSLTTLGKVISALADMQSKKRKSDFIPYRDSVLTWLLKENLGGNSRTAMIAALSPADINYEETLSTLRYADRTKQIRCNAIINEDPNARLIRELQEEVARLRELLMAQGLSASALEGLKTEEGSVRGALPAVSSPPAPVSPSSPTTHNGELEPSFSPNTESQIGPEEAMERLQETEKIIAELNETWEEKLRKTEALRMEREALLAEMGVAVREDGGTVGVFSPKKTPHLVNLNEDPLMSECLLYHIKDGVTRVGQVDMDIKLTGQFIREQHCLFRSIPQPDGEVVVTLEPCEGAETYVNGKLVTEPLVLKSGNRIVMGKNHVFRFNHPEQARLERERGVPPPPGPPSEPVDWNFAQKELLEQQGIDIKLEMEKRLQDLENQYRKEKEEADLLLEQQRLYADSDSGDDSDKRSCEESWRLISSLREQLPPTTVQTIVKRCGLPSSGKRRAPRRVYQIPQRRRLQGKDPRWATMADLKMQAVKEICYEVALADFRHGRAEIEALAALKMRELCRTYGKPDGPGDAWRAVARDVWDTVGEEEGGGAGSGGGSEEGARGAEVEDLRAHIDKLTGILQEVKLQNSSKDRELQALRDRMLRMERVIPLAQDHEDENEEGGEVPWAPPEGSEAAEEAAPSDRMPSARPPSPPLSSWERVSRLMEEDPAFRRGRLRWLKQEQLRLQGLQGSGGRGGGLRRPPARFVPPHDCKLRFPFKSNPQHRESWPGMGSGEAPTPLQPPEEVTPHPATPARRPPSPRRSHHPRRNSLDGGGRSRGAGSAQPEPQHFQPKKHNSYPQPPQPYPAQRPPGPRYPPYTTPPRMRRQRSAPDLKESGAAV [KIF1C]” the “solubility change mitosis (log2)” value [1] was -0.0384, the melting temperature ([2]; cell cycle stage: G1/S) was 48.5 °C and the melting temperature ([2]; cell cycle stage: mitosis) was 50.2 °C. The thermal stability score [3, 5] was 0.369, the thermal stability score ([3]; cell cycle stage: mitosis) was 0.754 and the “solubility in G1/S (log2)” value [4] was -0.0137.
